Measurements as given in PMC8497785, “Structural Characterization of the RNA-Binding Protein SERBP1 Reveals Intrinsic Disorder and Atypical RNA Binding Modes”.

Biological target: T1, SERBP1 189-400 (Homo sapiens, UniProt Q8NC51 189-400)
T1 sequence: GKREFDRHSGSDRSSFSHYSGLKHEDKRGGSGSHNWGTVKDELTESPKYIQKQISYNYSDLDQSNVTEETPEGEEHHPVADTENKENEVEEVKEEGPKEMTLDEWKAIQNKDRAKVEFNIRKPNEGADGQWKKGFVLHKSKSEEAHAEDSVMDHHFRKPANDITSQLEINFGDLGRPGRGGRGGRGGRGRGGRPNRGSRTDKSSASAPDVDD
Assay: NMR 1H,15N-HSQC titration; RNA:protein 2:5 to 8:5; CSPs from C-terminal RGG box to C-terminus (N383, T388, S394, A395, V398), RGG glycine broadening; 20 mM sodium phosphate pH 6.9, 60 mM NaCl, 1 mM PMSF, 0.2 mM EDTA, 10% D2O, 4 °C; 50 µM protein
Settings: protein: recombinant; tags: N-terminal 8xHis removed by TEV (vector-derived residues may remain)

B1: 7-mer G-rich RNA (G-quartet ligand) (ssRNA)
RNA: GCGCGGG
B1: binds.
